Publication PMC8097376 (2021)
Numbering of substitutions follows the chain as printed.

B1: nanobody NM1222 (VHH)
VHH: EVQLVESGGGLVRPGGSLRLSCVGSGFTFSGYAINWYRQAPGKALELVAGISNAGDLTHYEEAMKGRVAISRANDKNTVYLQMDDLKPEDTAVYRCHAPGVRVGTGERNDVWGQGAQVTVSS
B2: nanobody NM1223 (VHH)
VHH: EVQLVESGGGLVQPGGSLRLSCSASGFAFSSVSMSWVRLLPGKGTEWVAEIDRDGGNGNYEDSVKGRFTISRDNAKNTLFLQMNSLVPEDTALYYCRLGTRDHIMSGWGPGAPVTVSS
B3: nanobody NM1226 (VHH)
VHH: QVQLVESGGGSVQPGGSLRLSCLGSGSLDYYAIGWFRQAPGKEREGVSCIASSGDRTIYADSVKGRFTISRDYGKNTVYLQMNSLKPEDTAMYYCAALQGSYYYTGFVANEYDYWGQGAPVTVSS
B4: nanobody NM1221 (VHH)
VHH: B1 VHH with E1D, R13Q, R19T, T28L, I34M, L57I, A73V, G104A, T105S, A116T
B5: nanobody NM1230 (VHH)
VHH: B1 VHH with E1Q, I34M, A63P, N109K
B6: nanobody NM1225 (VHH)
VHH: QVQLVESGGGLVQPGGSLRLSCAASGNILRVHDMGWYRQAPGKQREYVAMITHGGITNYIDSVKGRFTISRDNAKNTVYLQMNSLKPEDTAVYYCHAVLSSALNGVTETSSNWGQGTQVTVSS
B7: nanobody NM1224 (VHH)
VHH: DVQLVESGGSLVQPGGSLRLSCETSRSSLDAYAIGWFRQAPGKEREGVASISSSSMRTEYADSVKGRFTISRDNAKNTAYLDMNSLKPEDTAVYYCAAAGEYGRAWPGLDWYEFEYEGPGSPVTVSS
B8: nanobody NM1229 (VHH)
VHH: EVQLQESGGGLVQPGESLRLSCAASGRTHDWYTMGWFRQAPGKEREFVARINWSSGMTYYADSVKGRFTISRDNPKNTVYLQMNSLTPDDTAVYYCNVHPFTSPDYWGQGTRVTVSS
B9: nanobody NM1227 (VHH)
VHH: EVQLVESGGGLVQPGGSLTLSCETSGRHFDIDDMGWYRQAPGKQRELVACITTESSTTYADAVKGRFTISRDNPDNTVYLQMTNLKPEDTAVYYCNAEMHPRSLDYALGNRDYWGQGAPVTVSS
B10: nanobody NM1228 (VHH)
VHH: DVQLVESGGGLVRPGGSLRLSCESSGRHFDIDTMGWYRQAPGKQRELVASITSEKSTVYADALKGRFTISRDIPDNNVYLQMNNLKPEDTAVYYCNAKMDPHSLDYALGNQVFWGQGSLVTVSS

How the values were obtained:
[1] = molecular target: T1, SARS-CoV-2 spike receptor-binding domain (RBD) (SARS-CoV-2, UniProt P0DTC2 319-541)
[2] = molecular target: S1 domain of the SARS-CoV-2 spike protein (SARS-CoV-2, UniProt P0DTC2 14-681)
[3] = molecular target: T1, SARS-CoV-2 spike receptor-binding …; assay: BLI
[4] = molecular target: T1, SARS-CoV-2 spike receptor-binding …; assay: BLI; remark: listed apart in the source

Binder	IC50 [1]	IC50 [2]	koff [3]	Kd [4]
B1	5.8 nM	27.3 nM	0.00294 s⁻¹	18 nM
B2			0.00027 s⁻¹	
B3		1.44 nM	0.00115 s⁻¹	
B4	10.1 nM	43.3 nM	0.00296 s⁻¹	22.7 nM
B5		10.6 nM	0.00166 s⁻¹	
B6			0.473 s⁻¹	53700 nM
B7	36.6 nM		0.00267 s⁻¹	
B8	37.8 nM	56.1 nM	0.00985 s⁻¹	53.2 nM
B9	1.65 nM	3.51 nM	0.00079 s⁻¹	3.72 nM
B10		0.85 nM	0.00064 s⁻¹	
